According to PMC4968227:

Target: T1, PARK7, endogenous in SN4741 cells (mouse (endogenous in SN4741)), Q99LX0
T1 chain: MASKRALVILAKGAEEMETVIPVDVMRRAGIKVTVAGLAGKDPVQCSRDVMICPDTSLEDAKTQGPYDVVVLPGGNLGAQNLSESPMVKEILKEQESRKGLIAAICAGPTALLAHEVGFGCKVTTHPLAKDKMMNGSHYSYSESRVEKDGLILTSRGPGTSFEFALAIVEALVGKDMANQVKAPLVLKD
Test: cross-linking
Details: remark: other sources report otherwise

B1: PARK7, endogenous in SN4741 cells, Q99LX0 1-189 (natural protein)
chain: MASKRALVILAKGAEEMETVIPVDVMRRAGIKVTVAGLAGKDPVQCSRDVMICPDTSLEDAKTQGPYDVVVLPGGNLGAQNLSESPMVKEILKEQESRKGLIAAICAGPTALLAHEVGFGCKVTTHPLAKDKMMNGSHYSYSESRVEKDGLILTSRGPGTSFEFALAIVEALVGKDMANQVKAPLVLKD
  stoichiometry N: 2
